Experimental data: patent US20150165065A1 (AVIDBIOTICS, published 2015)

T1: human NKG2D-Fc (human, UniProt P26718 78-216, limits assumed)
T1 construct: construct not described; also called human NKG2D-Fc reagent; not shown: Fc part
T1 sequence (looked up): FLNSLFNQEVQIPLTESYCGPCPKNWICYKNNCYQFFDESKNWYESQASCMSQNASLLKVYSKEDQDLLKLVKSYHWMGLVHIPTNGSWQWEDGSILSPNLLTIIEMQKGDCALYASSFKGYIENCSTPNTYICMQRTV

T2: biotinylated human NKG2D (human, UniProt P26718 78-216, limits assumed, biotinylated (site not stated))
T2 construct: Surface-coated in biolayer interferometry (Octet); also called recombinant biotinylated NKG2D
T2 sequence (looked up): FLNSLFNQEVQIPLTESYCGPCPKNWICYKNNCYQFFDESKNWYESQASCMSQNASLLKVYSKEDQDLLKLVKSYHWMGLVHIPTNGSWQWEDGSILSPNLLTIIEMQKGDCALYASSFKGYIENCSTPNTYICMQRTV

T3: mouse NKG2D-Fc (mouse, UniProt O54709 94-232, limits assumed)
T3 construct: Construct not described; also called murine NKG2D-Fc; murine NKG2D; not shown: Fc part
T3 sequence (looked up): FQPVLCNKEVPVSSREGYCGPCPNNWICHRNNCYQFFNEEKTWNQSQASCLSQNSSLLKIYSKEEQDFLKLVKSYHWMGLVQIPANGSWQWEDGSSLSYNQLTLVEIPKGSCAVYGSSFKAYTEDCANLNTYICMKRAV

T4: FGFR3 (coated on wells) (UniProt P22607 23-375, limits assumed)
T4 construct: Coated at 2 ug/ml on Maxisorp plates; also called Fibroblast Growth Factor Receptor 3
T4 sequence (looked up): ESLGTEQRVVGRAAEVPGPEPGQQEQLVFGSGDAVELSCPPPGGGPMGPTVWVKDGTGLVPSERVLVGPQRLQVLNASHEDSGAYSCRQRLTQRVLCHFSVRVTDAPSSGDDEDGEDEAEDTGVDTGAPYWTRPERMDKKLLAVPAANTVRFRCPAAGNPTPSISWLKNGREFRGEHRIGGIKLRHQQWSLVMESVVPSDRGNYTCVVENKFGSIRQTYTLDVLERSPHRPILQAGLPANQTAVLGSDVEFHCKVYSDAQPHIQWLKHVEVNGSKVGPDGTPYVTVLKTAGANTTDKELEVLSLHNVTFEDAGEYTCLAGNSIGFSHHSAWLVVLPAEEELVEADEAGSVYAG


What was measured:
[1] = target: FGFR3 (coated on wells) (UniProt P22607); experiment: ELISA on FGFR3-coated wells after 1 hour at 60 C and 1 hour back at room temperature [panel A]
[2] = target: T5, integrin αVβ3 (UniProt P06756 31-992; P05106 27-718); experiment: ELISA, coated integrin, anti-MICA-HRP
T5 construct: Coated on the ELISA plate
T5 sequence (P06756 31-992, chain 1 of 2): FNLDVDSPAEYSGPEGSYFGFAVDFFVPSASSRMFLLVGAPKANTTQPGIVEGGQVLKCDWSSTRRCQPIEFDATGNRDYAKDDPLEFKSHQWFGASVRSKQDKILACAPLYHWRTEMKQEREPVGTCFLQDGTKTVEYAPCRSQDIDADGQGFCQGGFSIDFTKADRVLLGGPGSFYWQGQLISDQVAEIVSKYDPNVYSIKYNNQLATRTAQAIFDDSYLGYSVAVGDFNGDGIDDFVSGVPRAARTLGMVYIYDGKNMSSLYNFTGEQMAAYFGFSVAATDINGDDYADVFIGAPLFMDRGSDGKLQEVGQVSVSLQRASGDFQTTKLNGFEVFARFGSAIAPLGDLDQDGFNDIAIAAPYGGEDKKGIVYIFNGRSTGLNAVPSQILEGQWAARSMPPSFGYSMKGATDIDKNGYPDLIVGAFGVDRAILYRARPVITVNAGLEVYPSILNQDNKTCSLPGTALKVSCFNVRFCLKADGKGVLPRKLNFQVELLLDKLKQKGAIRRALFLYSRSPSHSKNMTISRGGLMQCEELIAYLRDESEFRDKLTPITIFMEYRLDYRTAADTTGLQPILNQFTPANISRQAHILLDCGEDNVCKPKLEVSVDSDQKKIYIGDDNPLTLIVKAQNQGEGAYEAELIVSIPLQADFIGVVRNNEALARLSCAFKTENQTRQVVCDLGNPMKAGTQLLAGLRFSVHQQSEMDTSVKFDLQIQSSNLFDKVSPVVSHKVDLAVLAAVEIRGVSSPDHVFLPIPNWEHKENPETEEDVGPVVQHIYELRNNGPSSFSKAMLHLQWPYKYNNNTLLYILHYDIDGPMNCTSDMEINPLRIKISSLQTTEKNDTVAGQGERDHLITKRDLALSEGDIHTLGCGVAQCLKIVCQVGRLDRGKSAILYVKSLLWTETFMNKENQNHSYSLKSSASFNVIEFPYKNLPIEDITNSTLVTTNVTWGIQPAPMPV
T5 sequence (P05106 27-718, chain 2 of 2): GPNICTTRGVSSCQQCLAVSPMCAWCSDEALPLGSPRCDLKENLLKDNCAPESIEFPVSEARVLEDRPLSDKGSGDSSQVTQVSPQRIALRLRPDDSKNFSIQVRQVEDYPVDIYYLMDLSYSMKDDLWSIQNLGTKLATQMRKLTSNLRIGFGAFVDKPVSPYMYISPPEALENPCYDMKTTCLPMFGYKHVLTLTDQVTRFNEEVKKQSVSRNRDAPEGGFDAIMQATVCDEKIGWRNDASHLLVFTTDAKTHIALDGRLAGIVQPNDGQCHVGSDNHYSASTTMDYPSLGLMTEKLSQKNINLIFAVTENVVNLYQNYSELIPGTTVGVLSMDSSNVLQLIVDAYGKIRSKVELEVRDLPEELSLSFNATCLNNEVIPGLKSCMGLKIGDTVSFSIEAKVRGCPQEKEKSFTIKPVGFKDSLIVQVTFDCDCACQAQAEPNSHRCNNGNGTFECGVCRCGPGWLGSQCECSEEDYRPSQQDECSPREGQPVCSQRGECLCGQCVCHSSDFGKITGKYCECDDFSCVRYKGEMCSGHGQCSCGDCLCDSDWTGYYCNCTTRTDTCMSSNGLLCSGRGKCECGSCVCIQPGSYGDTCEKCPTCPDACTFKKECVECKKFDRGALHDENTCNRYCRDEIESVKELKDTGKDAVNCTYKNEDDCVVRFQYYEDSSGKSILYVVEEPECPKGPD

[3] = target: T6, integrin αVβ5 (UniProt P06756 31-992; P18084 24-719); experiment: ELISA, coated integrin, anti-MICA-HRP
T6 construct: Coated on the ELISA plate
T6 sequence (P06756 31-992, chain 1 of 2): as the sequence (P06756 31-992, chain 1 of 2) above
T6 sequence (P18084 24-719, chain 2 of 2): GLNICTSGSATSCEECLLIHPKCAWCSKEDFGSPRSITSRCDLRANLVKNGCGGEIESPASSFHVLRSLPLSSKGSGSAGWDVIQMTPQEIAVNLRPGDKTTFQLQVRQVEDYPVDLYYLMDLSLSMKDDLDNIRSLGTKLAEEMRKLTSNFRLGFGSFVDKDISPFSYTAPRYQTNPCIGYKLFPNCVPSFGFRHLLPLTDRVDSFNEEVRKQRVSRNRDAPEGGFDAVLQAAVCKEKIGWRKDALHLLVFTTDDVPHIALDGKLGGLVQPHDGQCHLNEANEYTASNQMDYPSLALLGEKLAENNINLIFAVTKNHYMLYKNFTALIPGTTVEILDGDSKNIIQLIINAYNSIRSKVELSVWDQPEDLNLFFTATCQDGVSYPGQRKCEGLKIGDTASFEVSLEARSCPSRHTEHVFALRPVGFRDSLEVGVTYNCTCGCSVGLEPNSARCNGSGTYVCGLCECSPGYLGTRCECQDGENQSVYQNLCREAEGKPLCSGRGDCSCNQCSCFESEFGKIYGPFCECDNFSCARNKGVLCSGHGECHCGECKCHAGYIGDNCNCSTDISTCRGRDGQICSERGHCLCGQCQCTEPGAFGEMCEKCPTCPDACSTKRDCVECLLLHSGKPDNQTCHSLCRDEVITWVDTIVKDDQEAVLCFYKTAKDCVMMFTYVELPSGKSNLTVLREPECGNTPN

[4] = target: T1, human NKG2D-Fc; experiment: competition ELISA, 2 nM human NKG2D-Fc on coated WT sMICA
Text: (§1) As for the NKG2D ligands (NKG2DLs) in the above example, we attached polypeptides directly to each of these 4 modified α1-α2 NKG2DLs using a linker peptide. The 4 His-tagged proteins (SEQ ID NOs.: 131-134) were expressed in insect cells and purified to characterize their NKG2D binding affinities and kinetic binding parameters. Using a competitive binding ELISA, we determined the relative NKG2D binding affinities of the 4 modified α1-α2 variants.

[5] = target: NKG2D receptor on NKL effector cells (human) (UniProt P26718); experiment: cell-based or functional assay
[6] = target: T2, biotinylated human NKG2D; experiment: BLI (Octet)
[7] = target: T1, human NKG2D-Fc; experiment: competition ELISA, human NKG2D-Fc on coated WT sMICA
Text: as §1

[8] = target: T2, biotinylated human NKG2D; experiment: BLI (Octet), Kd = kOFF/kON
[9] = target: T3, mouse NKG2D-Fc; experiment: competition ELISA: titrated soluble protein inhibits binding of mouse NKG2D-Fc to plate-coated MICA [panel B]
Text: as §1

[10] = target: T2, biotinylated human NKG2D; experiment: BLI (Octet), coated biotinylated human NKG2D, 100 nM analyte
[11] = target: T4, FGFR3 (coated on wells); experiment: ELISA on FGFR3-coated wells after 1 hour at 80 C and 1 hour back at room temperature [panel B]
[12] = target: T4, FGFR3 (coated on wells); experiment: ELISA on FGFR3-coated wells (2 ug/ml), bound sMICA detected with NKG2D-Fc and anti-Fc-HRP
Description: The purified MICA-α3-iFv proteins were tested in a FGFR3-binding ELISA to confirm simultaneous binding to the FGFR3 target and the NKG2D receptor. FGFR3 in phosphate buffered saline (PBS) was coated onto Maxisorp plates at 2 ug/ml concentration. Each MICA protein was titrated, allowed to bind FGFR3 for 1 hour, and washed to remove unbound sMICA protein. The bound MICA-α3-iFv protein was detected using NKG2D-Fc and anti-Fc-HRP conjugate.

Sequence of MICA-scFv (traditional scFv constructed from MAbR3 fused to the C-terminus of soluble MICA) (Q29983 24-307): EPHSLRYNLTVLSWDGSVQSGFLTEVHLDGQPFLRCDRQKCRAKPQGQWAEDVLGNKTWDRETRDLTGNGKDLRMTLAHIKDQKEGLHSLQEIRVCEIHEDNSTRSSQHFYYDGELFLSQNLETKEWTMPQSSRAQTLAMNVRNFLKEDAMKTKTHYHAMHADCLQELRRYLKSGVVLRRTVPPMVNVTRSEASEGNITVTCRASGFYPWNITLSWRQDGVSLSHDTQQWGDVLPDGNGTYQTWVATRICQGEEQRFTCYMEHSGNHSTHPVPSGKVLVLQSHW

Molecule	IC50 [4] [nM]	NK-mediated lysis of FGFR3-expressing P815 cells (calcein release) [5] [fold]	fold affinity increase relative to WT α1-α2 [6] [fold]	fold reduction in the off-rate relative to WT [6] [fold]	fold better binding than WT NKG2DL (IC50) [7] [fold]	Kd [8] [nM]	IC50 (read off the curve) [9] [nM]	koff [10] [s⁻¹]	kon [10] [M⁻¹ s⁻¹]	EC50 (read off the curve) [12] [nM]	further results
MICA-scFv (traditional scFv constructed from MAbR3 fused to the C-terminus of soluble MICA) (from UniProt Q29983 24-307) (designed binder)	–	–	–	–	–	–	–	–	–	–	EC50 (read off the curve) [1]: 5 nM
soluble MICA generated from pKK35 (loop 3 insert His10sp) (designed binder) EPHSLRYNLTVLSWDGSVQSGFLTEVHLDGQPFLRCDRQKCRAKPQGQWAEDVLGNKTWDRETRDLTGNGKDLRMTLAHIKDQKEGLHSLQEIRVCEIHEDNSTRSSQHFYYDGELFLSQNLETKEWTMPQSSRAQTLAMNVRNFLKEDAMKTKTHYHAMHADCLQELRRYLKSGVVLRRTVPPMVNVTRSEASEGNITVTCRASGFYPWNITLSWRQDGVSLSHDTQQWGDVLPDGNGTYQTWVATRISGGSGGGSHHHHHHHHHHSGGSGGGCYMEHSGNHSTHPVPSGK	–	–	–	–	–	–	–	–	–	–	αvβ3 signal [2]: 0.419 OD; αvβ3 signal/ng (signal/ng MICA) [2]: 2.46; αvβ5 signal [3]: 0.392 OD; αvβ5 signal/ng (signal/ng MICA) [3]: 2.31
α1-α2 variant 17 (designed binder, His-tagged protein from insect cells, modified α1-α2 domain with an attached polypeptide) EPHSLRYNLTVLSWDGSVQSGFLTEVHLDGQPFLRCDRQKCRAKPQGQWAEDVLGNKTWDRETRDLTLWGKDLRMTLAHIKDQKEGLHSLQEIRVCEIHEDNSTRSSQHFYYDGELFLSQNLETLEWTMPQSSRAQTLAMNVRNFLKEDAMETDTHYHAMRADCLQELRRYLKSGVVLRRTVPPMVQVTRSEASGGSGDRVTITCRASQDVSTAVAWYQQKPGKAPKLLIYSASFLYSGVPSRFSGSGSGTDFTLTISSLQPEDFATYYCQQSYTTPPTFGQGTKVEIKGGSSRSSSSGGGGSGGGGEVQLVESGGGLVQPGGSLRLSCAASGFTFTSTGISWVRQAPGKGLEWVGRIYPTNGSTNYADSVKGRFTISADTSKNTAYLQMNSLRAEDTAVYYCARTYGIYDLYVDYTEYVMDYWGQGTLVTVSSGGSSRSSSSGGGGSGGGGDIQMTQSPSSLSASGGSGQITVTCRASGFYPWNITLSWRQDGVSLSHDTQQWGDVLPDGQGTYQTWVATRISQGEEQRFTCYMEHSGQHSTHPVPSGKGSHHHHHH	0.6	15	~30	18	32	0.4	~1	7e-05	200000	–	–
MICA-α3-iFv.2 (designed binder) EPHSLRYNLTVLSWDGSVQSGFLTEVHLDGQPFLRCDRQKCRAKPQGQWAEDVLGNKTWDRETRDLTGNGKDLRMTLAHIKDQKEGLHSLQEIRVCEIHEDNSTRSSQHFYYDGELFLSQNLETKEWTMPQSSRAQTLAMNVRNFLKEDAMKTKTHYHAMHADCLQELRRYLKSGVVLRRTVPPMVQVTRSEASGGSGDRVTITCRASQDVSTAVAWYQQKPGKAPKLLIYSASFLYSGVPSRFSGSGSGTDFTLTISSLQPEDFATYYCQQSYTTPPTFGQGTKVEIKGGSSRSSSSGGGGSGGGGEVQLVESGGGLVQPGGSLRLSCAASGFTFTSTGISWVRQAPGKGLEWVGRIYPTNGSTNYADSVKGRFTISADTSKNTAYLQMNSLRAEDTAVYYCARTYGIYDLYVDYTEYVMDYWGQGTLVTVSSGGSSRSSSSGGGGSGGGGDIQMTQSPSSLSASGGSGQITVTCRASGFYPWNITLSWRQDGVSLSHDTQQWGDVLPDGQGTYQTWVATRISQGEEQRFTCYMEHSGQHSTHPVPSGKGSHHHHHH	–	–	–	–	–	–	–	–	–	~2	EC50 (read off the curve) [11]: ~5 nM
α1-α2 variant 18 (designed binder, His-tagged protein from insect cells, modified α1-α2 domain with an attached polypeptide) EPHSLRYNLTVLSWDGSVQPGFLTEVHLDGQPFLRCDRQKCRAKPQGQWAEDVLGNKTWDRETRDLTLWGKDLRMTLAHIKDQKEGLHSLQEIRVCEIHEDNSTRSSQHFYYDGELFLSQNLETLEWTMPQSSRAQTLAMNVRNFLKEDAMETDTHYHAMRADCLQELRRYLKSGVVLRRTVPPMVQVTRSEASGGSGDRVTITCRASQDVSTAVAWYQQKPGKAPKLLIYSASFLYSGVPSRFSGSGSGTDFTLTISSLQPEDFATYYCQQSYTTPPTFGQGTKVEIKGGSSRSSSSGGGGSGGGGEVQLVESGGGLVQPGGSLRLSCAASGFTFTSTGISWVRQAPGKGLEWVGRIYPTNGSTNYADSVKGRFTISADTSKNTAYLQMNSLRAEDTAVYYCARTYGIYDLYVDYTEYVMDYWGQGTLVTVSSGGSSRSSSSGGGGSGGGGDIQMTQSPSSLSASGGSGQITVTCRASGFYPWNITLSWRQDGVSLSHDTQQWGDVLPDGQGTYQTWVATRISQGEEQRFTCYMEHSGQHSTHPVPSGKGSHHHHHH	0.5	15	~30	18	38	0.4	~1	9e-05	230000	–	–
MICA-α3-iFv.1 (designed binder) EPHSLRYNLTVLSWDGSVQSGFLTEVHLDGQPFLRCDRQKCRAKPQGQWAEDVLGNKTWDRETRDLTGNGKDLRMTLAHIKDQKEGLHSLQEIRVCEIHEDNSTRSSQHFYYDGELFLSQNLETKEWTMPQSSRAQTLAMNVRNFLKEDAMKTKTHYHAMHADCLQELRRYLKSGVVLRRTVPPMVQVTRSEASGDRVTITCRASQDVSTAVAWYQQKPGKAPKLLIYSASFLYSGVPSRFSGSGSGTDFTLTISSLQPEDFATYYCQQSYTTPPTFGQGTKVEIKGGSSRSSSSGGGGSGGGGEVQLVESGGGLVQPGGSLRLSCAASGFTFTSTGISWVRQAPGKGLEWVGRIYPTNGSTNYADSVKGRFTISADTSKNTAYLQMNSLRAEDTAVYYCARTYGIYDLYVDYTEYVMDYWGQGTLVTVSSGGSSRSSSSGGGGSGGGGDIQMTQSPSSLSASGQITVTCRASGFYPWNITLSWRQDGVSLSHDTQQWGDVLPDGQGTYQTWVATRISQGEEQRFTCYMEHSGQHSTHPVPSGKGSHHHHHH	–	–	–	–	–	–	–	–	–	~1	–
